According to PMC10387464 (Signal Transduction and Targeted Therapy, 2023):

Target: Omicron BA.1 spike trimer (SARS-CoV-2 Omicron BA.1 (B.1.1.529), N440K | G446S)
Experiment: cryo-EM structure
Settings: both partners purified

B1: MB.02 Fab (Fab, V domains shown)
VH: EVQLVQSGAEVKKPGESLKISCKGSGFSFTSYWIGWVRQMPGKGLEWMGIIYPGDSDTRYSPSFQGQVTISADKSISTAYLQWSSLKASDTAMYYCARGGYEDVFDIWGQGTMVTVSS
VL: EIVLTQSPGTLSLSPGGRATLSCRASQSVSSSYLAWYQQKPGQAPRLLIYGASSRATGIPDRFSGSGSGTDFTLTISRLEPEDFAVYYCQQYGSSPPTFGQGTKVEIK
With B1 the “stoichiometry N” value was 3 Fabs per S trimer.
